Data taken from US20040170644A1.
No end group written: not given here.

Legend:
[1] = biological target: T1, HLA-DR7 molecule (DRB1*0701) (human); assay: competition ELISA vs biotin-YKL
T1 chain 1: not shown
T1 chain 2: not shown

[2] = biological target: T2, HLA-DRB3*0101 molecule (human); assay: competition ELISA vs biotin-Lol 191-210
T2 chain 1: not shown
T2 chain 2: not shown

[3] = biological target: T3, HLA-DR1 molecule (DRB1*0101) (human); assay: competition ELISA vs biotin-HA 306-318
T3 chain 1: not shown
T3 chain 2: not shown

[4] = biological target: T4, HLA-DR3 molecule (DRB1*0301) (human); assay: competition ELISA vs biotin-MT 2-16
T4 chain 1: not shown
T4 chain 2: not shown

[5] = biological target: T5, HLA-DR15 molecule (DRB1*1501) (human); assay: competition ELISA vs biotin-A3 152-166
T5 chain 1: not shown
T5 chain 2: not shown

[6] = biological target: T6, HLA-DR11 molecule (DRB1*1101) (human); assay: competition ELISA vs biotin-HA 306-318
T6 chain 1: not shown
T6 chain 2: not shown

[7] = biological target: T7, HLA-DRB5*0101 molecule (human); assay: competition ELISA vs biotin-HA 306-318
T7 chain 1: not shown
T7 chain 2: not shown

[8] = biological target: T8, HLA-DR4 molecule (DRB1*0401) (human); assay: competition ELISA vs biotin-HA 306-318
T8 chain 1: not shown
T8 chain 2: not shown

[9] = biological target: T9, HLA-DRB4*0101 molecule (human); assay: competition ELISA vs biotin-E2/E168
T9 chain 1: not shown
T9 chain 2: not shown

[10] = biological target: T10, HLA-DR13 molecule (DRB1*1301) (human); assay: competition ELISA vs biotin-B1 21-36
T10 chain 1: not shown
T10 chain 2: not shown

Binder	IC50 [1] [nM]	IC50 [2] [nM]	IC50 [3] [nM]	IC50 [4] [nM]	IC50 [5] [nM]	IC50 [6] [nM]	IC50 [7] [nM]	IC50 [8] [nM]	IC50 [9] [nM]	IC50 [10] [nM]
ERPRKLPQLCTELQTTIHDII (modifications not checked) [E6(14-34)]	225	1450	3500	550	800					
QRFHNIRGRWTGRCM (modifications not checked) [E6 130-144]	950		4			115	75			
TTLEQQYNKPLCDLL (modifications not checked) [E6 93-107]	7750				18		325			
MHQKRTAMFQDPQERPRKLPQL (modifications not checked) [E6(1-22)]				3500						
SLYGTTLEQQYNKPL (modifications not checked) [E6 89-103]	1500		125		53		200	5000		
QQLLRREVYDFAFRD (modifications not checked) [E6 42-56]					3250	6000			55	375
HLDKKQRFHNIRGR (modifications not checked) [E6 124-138]			10			475	75			
PTLHEYMLDLQPETT (modifications not checked) [E7 6-20]		90	750		675	1500		175	200	
QQYNKPLCDLLIRCI (modifications not checked) [E6 97-111]			575	1230	4000		5500	325		
LCVQSTHVDIRTLED (modifications not checked) [E7 67-81]	1500		7000		950			7500		
SEYRHYCYSLYGTTL (modifications not checked) [E6 81-95]			10			725	2500			
MGTLGIVCPICSQKP (modifications not checked) [E7 84-98]	1250				425		90		1750	
TERVRLVTRHIYNREE (not fully specified) [B1 21-36 (nonbiotinylated)]										330
DLYCYEQLNDSSEEEDEIDG (modifications not checked) [E7(21-40)]				4600	5300			1750		
RTLEDLLMGTLGIVC (modifications not checked) [E7 77-91]	55						700			
DLLIRCINCQKPLCPEEKQRHL (modifications not checked) [E6(105-126)]			1750		4000	5000	30	3750		5000
RHYCYSLYGTTLEQQ (modifications not checked) [E6 84-98]	3250					7000	900			
LDLQPETTDLYCYEQ (modifications not checked) [E7 13-27]			4000	3500		3500		4250		
TLHEYMLDLQPETTDLYCYEQ (modifications not checked) [E7(7-27)]		8.5		560	1770	600		60	375	7500
LRLCVQSTHVDIRTL (modifications not checked) [E7 65-79]	600		750							
RDLCIVYRDGNPYAV (modifications not checked) [E6 55-69]			1500		55	250				
LRLCVQSTHVDIRTLEDLLMGTL (modifications not checked) [E7(65-87)]	900	850	650	450	470			650		
KCDSTLRLCVQSTHV (modifications not checked) [E7(60-74)]	900		5000			7000	200			
MHGDTPTLHEYMLDLQPETT (modifications not checked) [E7(1-20)]		35	2500		125	1750			4	
TELQTTIHDIILECV (modifications not checked) [E6 24-38]	1500		425		950					
FYSKISEYRHYCYSL (modifications not checked) [E6 76-90]			125				1050			225
LRREVYDFAFRDLCIVYRDGNPY (modifications not checked) [E6(45-67)]	2330	2500			225	125	65			
EKQRHLDKKQRFHNIRGRWT (modifications not checked) [E6(121-140)]	200		125			350	85			1130
